Test results from patent US6790633.

Molecular target: T1, rat brain farnesyl:protein transferase (rat, UniProt Q04631 2-377; Q02293 1-437)
Assay: cell-based or functional assay

Concentration For 50% Inhibition [µM]	Binder
0.35	CIIS
22	CLLL
0.15	CIIM
0.15	CAIM
0.35	CCVQ
0.15	CVVM
5	CVIA
> 100	CIKS
0.15	CVIM
100	CAIL
0.15	CVLM
11	CVIL
3	CVLS
30	CTVA
0.2	CSIM
17	CLIL
1	CVIS
0.35	CIIC

Molecular target: T1, rat brain farnesyl:protein transferase
Assay: cell-based or functional assay
Remark: another data set of the same source

fold decrease in affinity for the enzyme against CVIM, as estimated by the concentration required for 50% inhibition [fold]	concentration giving 50% inhibition [µM]	fold increase in affinity for the enzyme against CVIM [fold]	Binder
> 30	–	–	CVAM
–	8	–	CPIM
–	20	–	CVPM
> 30	–	–	CVIA
–	4	–	CGIM
–	0.025	6	CVFM
–	0.5	–	CVIF
–	12	–	CVIL
–	1.5	–	CEIM
–	0.7	–	CKIM
